The target of the experiment is T1, Full-length human GPR1, wild type, N-terminal FLAG tag (pcDNA3.1(+)) (human) (UniProt P46091).
T1 sequence: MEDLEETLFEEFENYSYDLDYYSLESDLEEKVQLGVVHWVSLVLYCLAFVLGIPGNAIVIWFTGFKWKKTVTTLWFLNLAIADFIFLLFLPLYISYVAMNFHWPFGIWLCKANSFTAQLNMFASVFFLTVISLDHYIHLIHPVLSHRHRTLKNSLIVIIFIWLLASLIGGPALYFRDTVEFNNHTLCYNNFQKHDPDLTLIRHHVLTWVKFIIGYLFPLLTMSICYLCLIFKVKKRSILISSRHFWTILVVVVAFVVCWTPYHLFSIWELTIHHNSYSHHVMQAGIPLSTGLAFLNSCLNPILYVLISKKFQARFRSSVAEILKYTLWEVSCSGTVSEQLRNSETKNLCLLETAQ

Results on one molecule are retold here after publication PMC11515964.

B1: Full-length chemerin (abcam, ab256228) (ligand)
chain: ELTEAQRRGLQVALEEFHKHPPVQWAFQETSVESAVDTPFPAGIFVRLEFKLQQTSCRKRDWKKPECKVRPNGRKRKCLACIKLGSEDKVLGRLVHCPIETQVLREAEEHQETQCLRVQRAGEDPHSFYFPGQFAFS
As to B1, the EC50 of cAMP inhibition (HeLa) and NanoBiT G protein dissociation (HEK293T) came out at 0.1 nM.
